The source of these data is patent US20240255503A1 (UNIVERSITY OF NEWCASTLE UPON TYNE, published 2024).

Residue numbers refer to the chain shown, from its start. Names may count otherwise.

Data set [1] deals with C3b:FH1-4 complex (chip-bound C3b with co-injected WT FH1-4).
Data set [2] concerns the target T1, C3b:FH1-4 complex (chip-bound C3b with co-injected WT FH1-4) (human, UniProt P01024 23-667; P01024 749-1663; P08603 19-263).
T1 construct: Composite target for the FI variants in the trimolecular complex (TMC) building assay, made of m1 and m3; FI and FH1-4 were injected together over C3b; also called FH/C3b; FH-1-4/C3b
Briefly: SPR TMC building, 62.5 nM FI with 125 nM WT FH1-4 over amine-coupled C3b.

Data set [3] concerns the target T2, Human C3b (wild type), immobilised on a CM5 sensor chip (human, UniProt P01024 23-667; P01024 749-1663).
T2 construct: also called WT C3b; WT C3
As to the kind of experiment: SPR steady-state affinity, FH19-20 20-0.156 µM over thioester-coupled WT C3b (899 RU); WT C3b on the chip, not the L1109V mutant.

The target of data set [4] is T3, L1109V mutant C3b, immobilised on a CM5 sensor chip (human, UniProt P01024 23-667; P01024 749-1663).
T3 construct: C3 purified from the serum of a homozygous aHUS patient and converted to C3b on the chip (898 RU, thioester coupled); also called L1109V C3b; variant C3b
As to the kind of experiment: SPR steady-state affinity, FH19-20 20-0.156 µM over thioester-coupled L1109V C3b (898 RU); fitted KD from the same SPR run on L1109V C3b that the text calls a lack of binding.

Data set [5] deals with T2, Human C3b (wild type), immobilised on a …. Briefly: SPR affinity estimate (not steady state), FL-FH 250-7.8 nM over thioester-coupled WT C3b. The source says:
(§1) Dissociation constants (KD) are given under the graphs showing each concentration vs RU curve labelled with the appropriate variant.

Data set [6] addresses T3, L1109V mutant C3b, immobilised on a CM5 …. Briefly: SPR affinity estimate, FL-FH over thioester-coupled mutant and WT C3b.
Excerpt: as §1

Data set [7] has the same target. As to the kind of experiment: SPR affinity fit (BIAevaluation), WT full length FH over thiol-coupled L1109V C3b (898 RU) on a CM5 chip, PBST; printed under both panels [Continued].
Excerpt: as §1

The target in data set [8] is T2, Human C3b (wild type), immobilised on a …. As to the kind of experiment: SPR steady-state affinity fit (BIAevaluation S200), WT FH1-4 over C3b immobilised on a CM5 chip. From the text: Data was collected at 40 Hz and there was a 120s stabilisation period between each sample being injected.
Data set [9] concerns the target T3, L1109V mutant C3b, immobilised on a CM5 …. Briefly: SPR steady-state affinity, FH1-4 20-0.156 µM over thioester-coupled L1109V C3b (898 RU).
For data set [10], the target named is T2, Human C3b (wild type), immobilised on a …. Briefly: SPR steady-state affinity fit (BIAevaluation S200), WT FH1-4 over thiol-coupled WT C3b (899 RU) on a CM5 chip, PBST [Continued].
The target is the same in data set [11]. Briefly: SPR steady-state affinity, FH1-4 20-0.156 µM over thioester-coupled WT C3b (899 RU).

T2 sequence (P01024 23-667 limits assumed, chain 1 of 2): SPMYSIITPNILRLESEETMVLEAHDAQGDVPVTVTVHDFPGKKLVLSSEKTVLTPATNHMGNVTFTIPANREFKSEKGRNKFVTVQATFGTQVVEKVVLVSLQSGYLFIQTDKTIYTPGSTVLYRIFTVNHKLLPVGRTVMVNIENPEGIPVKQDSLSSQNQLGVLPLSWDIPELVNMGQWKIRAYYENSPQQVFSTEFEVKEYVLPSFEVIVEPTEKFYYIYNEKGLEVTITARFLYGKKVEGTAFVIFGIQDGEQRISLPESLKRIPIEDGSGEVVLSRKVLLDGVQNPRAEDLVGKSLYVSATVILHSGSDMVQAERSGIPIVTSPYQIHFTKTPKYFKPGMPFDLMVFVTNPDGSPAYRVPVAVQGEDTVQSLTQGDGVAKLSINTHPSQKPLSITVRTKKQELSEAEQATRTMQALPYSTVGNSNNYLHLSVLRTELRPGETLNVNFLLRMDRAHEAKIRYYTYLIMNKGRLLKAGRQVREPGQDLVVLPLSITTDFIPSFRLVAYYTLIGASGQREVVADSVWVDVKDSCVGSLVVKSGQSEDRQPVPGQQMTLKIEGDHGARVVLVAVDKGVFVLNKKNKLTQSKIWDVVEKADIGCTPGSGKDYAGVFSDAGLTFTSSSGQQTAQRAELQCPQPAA
T2 sequence (P01024 749-1663 limits assumed, chain 2 of 2): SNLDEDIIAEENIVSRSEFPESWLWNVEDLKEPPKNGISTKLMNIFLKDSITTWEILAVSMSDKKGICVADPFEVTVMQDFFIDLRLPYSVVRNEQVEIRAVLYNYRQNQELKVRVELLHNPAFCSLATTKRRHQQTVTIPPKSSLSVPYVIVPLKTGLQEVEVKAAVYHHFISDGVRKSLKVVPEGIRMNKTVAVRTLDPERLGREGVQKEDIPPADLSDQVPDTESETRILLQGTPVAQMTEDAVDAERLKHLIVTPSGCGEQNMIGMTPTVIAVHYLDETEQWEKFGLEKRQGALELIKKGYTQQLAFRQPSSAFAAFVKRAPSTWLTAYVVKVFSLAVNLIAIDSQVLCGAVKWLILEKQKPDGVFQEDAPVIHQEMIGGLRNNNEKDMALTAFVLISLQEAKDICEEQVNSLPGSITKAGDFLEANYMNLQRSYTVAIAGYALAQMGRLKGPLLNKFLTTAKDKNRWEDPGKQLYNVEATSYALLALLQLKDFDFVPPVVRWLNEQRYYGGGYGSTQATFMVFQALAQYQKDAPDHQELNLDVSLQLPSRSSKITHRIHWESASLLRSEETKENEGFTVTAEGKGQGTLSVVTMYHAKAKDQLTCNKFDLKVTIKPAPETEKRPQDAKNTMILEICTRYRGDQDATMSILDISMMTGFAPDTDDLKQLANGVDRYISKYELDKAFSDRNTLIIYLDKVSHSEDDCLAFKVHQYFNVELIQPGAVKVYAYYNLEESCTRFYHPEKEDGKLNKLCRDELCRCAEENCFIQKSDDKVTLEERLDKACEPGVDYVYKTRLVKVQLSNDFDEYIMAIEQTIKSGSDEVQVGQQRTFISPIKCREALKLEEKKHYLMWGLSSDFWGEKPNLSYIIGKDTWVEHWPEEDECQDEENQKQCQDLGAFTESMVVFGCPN
T3 sequence (P01024 23-667 limits assumed, chain 1 of 2): as the sequence (P01024 23-667 limits assumed, chain 1 of 2) above
T3 sequence (P01024 749-1663 L1109V limits assumed, chain 2 of 2): as the sequence (P01024 749-1663 limits assumed, chain 2 of 2) above, with L361V counted along it
T1 sequence (P01024 23-667 limits assumed, chain 1 of 2): as the sequence (P01024 23-667 limits assumed, chain 1 of 2) above
T1 sequence (P01024 749-1663 limits assumed, chain 2 of 2): as the sequence (P01024 749-1663 limits assumed, chain 2 of 2) above

B1: Inactive (S525A) Complement Factor I (protein)
chain: KVTYTSQEDLVEKKCLAKKYTHLSCDKVFCQPWQRCIEGTCVCKLPYQCPKNGTAVCATNRRSFPTYCQQKSLECLHPGTKFLNNGTCTAEGKFSVSLKHGNTDSEGIVEVKLVDQDKTMFICKSSWSMREANVACLDLGFQQGADTQRRFKLSDLSINSTECLHVHCRGLETSLAECTFTKRRTMGYQDFADVVCYTQKADSPMDDFFQCVNGKYISQMKACDGINDCGDQSDELCCKACQGKGFHCKSGVCIPSQYQCNGEVDCITGEDEVGCAGFASVTQEETEILTADMDAERRRIKSLLPKLSCGVKNRMHIRRKRIVGGKRAQLGDLPWQVAIKDASGITCGGIYIGGCWILTAAHCLRASKTHRYQIWTTVVDWIHPDLKRIVIEYVDRIIFHENYNAGTYQNDIALIEMKKDGNKKDCELPRSIPACVPWSPYLFQPNDTCIVSGWGREKDNERVFSLQWGEVKLISNCSKFYGNRFYEKEMECAGTYDGSIDACKGDAGGPLVCMDANNVTYVWGVVSWGENCGKPEFPGVYTKVANYFDWISYHVGRPFISQYNV
As to B1, the “cleavage of chip-bound C3b (SPR, convertase rebuilt before and after)” value in data set [1] is recorded as “Inactive (S525A) FI therefore demonstrated binding of the components of the AP regulatory TMC without cleaving the chip surface”.

B2: Complement Factor I with only an H380R mutation (protein)
chain: B1 chain with H362R, A507S
On to B2, for which the “cleavage of chip-bound C3b (SPR)” value in [1] is given as “H380R FI appears to bind to WT FH1-4/C3b without cleaving the C3b coupled chip surface”.

B3: Y459S inactive (S525A) Complement Factor I (enzyme)
chain: B1 chain with Y441S
notes: also called Y459S FI
With B3, the “increase in response (RU)” value in data set [2] is approximately 2 RU.

B4: Complement Factor H CCP domains 19-20 (WT FH CCP19-20) (other, human, UniProt P08603 1107-1231, looked up)
chain: GKCGPPPPIDNGDITSFPLSVYAPASSVEYQCQNLYQLEGNKRITCRNGQWSEPPKCLHPCVISREIMENYNIALRWTAKQKLYSRTGESVEFVCKRGYRLSSRSHTLRTTCWDGKLEYPTCAKR
notes: domain: CCP19-20; also called FH19-20
What is called Kd is the concentration at which binding is half-saturated. B4: the dissociation constant (Kd) was 9.92 µM in [3] and approximately 358 µM in [4].

B5: Complement Factor I, wild type (active) (protein)
chain 1: KVTYTSQEDLVEKKCLAKKYTHLSCDKVFCQPWQRCIEGTCVCKLPYQCPKNGTAVCATNRRSFPTYCQQKSLECLHPGTKFLNNGTCTAEGKFSVSLKHGNTDSEGIVEVKLVDQDKTMFICKSSWSMREANVACLDLGFQQGADTQRRFKLSDLSINSTECLHVHCRGLETSLAECTFTKRRTMGYQDFADVVCYTQKADSPMDDFFQCVNGKYISQMKACDGINDCGDQSDELCCKACQGKGFHCKSGVCIPSQYQCNGEVDCITGEDEVGCAGFASVAQEETEILTADMDAERRRIKSLLPKLSCGVKNRMHI
chain 2: IVGGKRAQLGDLPWQVAIKDASGITCGGIYIGGCWILTAAHCLRASKTHRYQIWTTVVDWIHPDLKRIVIEYVDRIIFHENYNAGTYQNDIALIEMKKDGNKKDCELPRSIPACVPWSPYLFQPNDTCIVSGWGREKDNERVFSLQWGEVKLISNCSKFYGNRFYEKEMECAGTYDGSIDACKGDSGGPLVCMDANNVTYVWGVVSWGENCGKPEFPGVYTKVANYFDWISYHVGRPFISQYNV
Take B5: the “cleavage of chip-bound C3b to iC3b (SPR, 25° C.)” value in data set [1] was “the chip was shown to be degraded almost instantaneously after formation of a small amount of TMC (˜3 RU) and conversion of C3b to iC3b”.

B6: Full Length Human Complement Factor H (FH) (other)
chain: EDCNELPPRRNTEILTGSWSDQTYPEGTQAIYKCRPGYRSLGNVIMVCRKGEWVALNPLRKCQKRPCGHPGDTPFGTFTLTGGNVFEYGVKAVYTCNEGYQLLGEINYRECDTDGWTNDIPICEVVKCLPVTAPENGKIVSSAMEPDREYHFGQAVRFVCNSGYKIEGDEEMHCSDDGFWSKEKPKCVEISCKSPDVINGSPISQKIIYKENERFQYKCNMGYEYSERGDAVCTESGWRPLPSCEEKSCDNPYIPNGDYSPLRIKHRTGDEITYQCRNGFYPATRGNTAKCTSTGWIPAPRCTLKPCDYPDIKHGGLYHENMRRPYFPVAVGKYYSYYCDEHFETPSGSYWDHIHCTQDGWSPAVPCLRKCYFPYLENGYNQNYGRKFVQGKSIDVACHPGYALPKAQTTVTCMENGWSPTPRCIRVKTCSKSSIDIENGFISESQYTYALKEKAKYQCKLGYVTADGETSGSITCGKDGWSAQPTCIKSCDIPVFMNARTKNDFTWFKLNDTLDYECHDGYESNTGSTTGSIVCGYNGWSDLPICYERECELPKIDVHLVPDRKKDQYKVGEVLKFSCKPGFTIVGPNSVQCYHFGLSPDLPICKEQVQSCGPPPELLNGNVKEKTKEEYGHSEVVEYYCNPRFLMKGPNKIQCVDGEWTTLPVCIVEESTCGDIPELEHGWAQLSSPPYYYGDSVEFNCSESFTMIGHRSITCIHGVWTQLPQCVAIDKLKKCKSSNLIILEEHLKNKKEFDHNSNIRYRCRGKEGWIHTVCINGRWDPEVNCSMAQIQLCPPPPQIPNSHNMTTTLNYRDGEKVSVLCQENYLIQEGEEITCKDGRWQSIPLCVEKIPCSQPPQIEHGTINSSRSSQESYAHGTKLSYTCEGGFRISEENETTCYMGKWSSPPQCEGLPCKSPPEISHGVVAHMSDSYQYGEEVTYKCFEGFGIDGPAIAKCLGEKWSHPPSCIKTDCLSLPSFENAIPMGEKKDVYKAGEQVTYTCATYYKMDGASNVTCINSRWTGRPTCRDTSCVNPPTVQNAYIVSRQMSKYPSGERVRYQCRSPYEMFGDEEVMCLNGNWTEPPQCKDSTGKCGPPPPIDNGDITSFPLSVYAPASSVEYQCQNLYQLEGNKRITCRNGQWSEPPKCLHPCVISREIMENYNIALRWTAKQKLYSRTGESVEFVCKRGYRLSSRSHTLRTTCWDGKLEYPTCAKR
notes: Bought (CompTech, A137); also called FL-FH; FLFH
B6: the dissociation constant (Kd) is 0.28 µM in data set [5] and 1.01 µM in data set [7]. For the same molecule, the “fold change of KD, mutant C3b against WT C3b” value in data set [6] was 3.6 fold.

B7: Recombinant Human Complement Factor H CCPs 1-4 (6x His-tagged), wild type (other)
chain: EKREAEAAGEQKLISEEDLEDCNELPPRRNTEILTGSWSDQTYPEGTQAIYKCRPGYRSLGNVIMVCRKGEWVALNPLRKCQKRPCGHPGDTPFGTFTLTGGNVFEYGVKAVYTCNEGYQLLGEINYRECDTDGWTNDIPICEVVKCLPVTAPENGKIVSSAMEPDREYHFGQAVRFVCNSGYKIEGDEEMHCSDDGFWSKEKPKCVEISCKSPDVINGSPISQKIIYKENERFQYKCNMGYEYSERGDAVCTESGWRPLPSCEHHHHHH
notes: Produced in-house; also called FH1-4; WT FH1-4
Regarding B7, the dissociation constant (Kd) in [8] came to 10.1 µM; in data set [9], 9.2 µM; in data set [10] it was 8.09 µM; in data set [11] it was 8.1 µM.
